The results in this text go back to US20110318339A1.

Test [1] deals with rHuman HGF R/c-MET/Fc Chimera, CF (Cat# 358-MT/CF, R&D Systems) (human) (UniProt P08581). Put plainly: Multispot ECL; Fab 480 nM; blank 362.
Test [2] has as its target rHuman IGF-1 sR, (IGF-1 sR), CF (Cat# 391-GR, R&D Systems) (human) (UniProt P08069). In words: Multispot ECL; Fab 480 nM; blank 362.
The target in test [3] is rHuman EGF R/Fc Chimera, CF (Cat# 344-ER, R&D Systems) (human) (UniProt P00533). In words: Multispot ECL; Fab 480 nM; blank 362.
The target in test [4] is rHuman ErbB2/Fc Chimera, CF (Cat# 1129-ER, R&D Systems) (human) (UniProt P04626). In words: Multispot ECL; Fab 480 nM; blank 362.
Test [5] addresses rHuman HGF R/c-MET/Fc Chimera, CF (Cat# 358-MT/CF, R&D Systems) (human) (UniProt P08581). In words: Multispot ECL; Fab 30 nM; blank 213.
The target in test [6] is rHuman IGF-1 sR, (IGF-1 sR), CF (Cat# 391-GR, R&D Systems) (human) (UniProt P08069). Put plainly: Multispot ECL; Fab 30 nM; blank 213.
The target of test [7] is rHuman EGF R/Fc Chimera, CF (Cat# 344-ER, R&D Systems) (human) (UniProt P00533). In words: Multispot ECL; Fab 30 nM; blank 213.
Test [8] concerns the target rHuman ErbB2/Fc Chimera, CF (Cat# 1129-ER, R&D Systems) (human) (UniProt P04626). Put plainly: Multispot ECL; Fab 30 nM; blank 213.
For test [9], the target named is rHuman HGF R/c-MET/Fc Chimera, CF (Cat# 358-MT/CF, R&D Systems) (human) (UniProt P08581). In words: Multispot ECL; Fab 15 nM; blank 261.
The target in test [10] is rHuman IGF-1 sR, (IGF-1 sR), CF (Cat# 391-GR, R&D Systems) (human) (UniProt P08069). In words: Multispot ECL; Fab 15 nM; blank 261.
Test [11] addresses rHuman EGF R/Fc Chimera, CF (Cat# 344-ER, R&D Systems) (human) (UniProt P00533). Put plainly: Multispot ECL; Fab 15 nM; blank 261.
In test [12] the target is rHuman ErbB2/Fc Chimera, CF (Cat# 1129-ER, R&D Systems) (human) (UniProt P04626). Put plainly: Multispot ECL; Fab 15 nM; blank 261.
For test [13], the target named is rHuman HGF R/c-MET/Fc Chimera, CF (Cat# 358-MT/CF, R&D Systems) (human) (UniProt P08581). Put plainly: Multispot ECL; Fab 3.8 nM; blank 198.
Test [14] has as its target rHuman IGF-1 sR, (IGF-1 sR), CF (Cat# 391-GR, R&D Systems) (human) (UniProt P08069). In words: Multispot ECL; Fab 3.8 nM; blank 198.
Test [15] has as its target rHuman EGF R/Fc Chimera, CF (Cat# 344-ER, R&D Systems) (human) (UniProt P00533). In words: Multispot ECL; Fab 3.8 nM; blank 198.
The target in test [16] is rHuman ErbB2/Fc Chimera, CF (Cat# 1129-ER, R&D Systems) (human) (UniProt P04626). Put plainly: Multispot ECL; Fab 3.8 nM; blank 198.
In test [17] the target is rHuman HGF R/c-MET/Fc Chimera, CF (Cat# 358-MT/CF, R&D Systems) (human) (UniProt P08581). Put plainly: Multispot ECL; Fab 7.5 nM; blank 217.
Test [18] concerns the target rHuman IGF-1 sR, (IGF-1 sR), CF (Cat# 391-GR, R&D Systems) (human) (UniProt P08069). Put plainly: Multispot ECL; Fab 7.5 nM; blank 217.
Test [19] addresses rHuman EGF R/Fc Chimera, CF (Cat# 344-ER, R&D Systems) (human) (UniProt P00533). In words: Multispot ECL; Fab 7.5 nM; blank 217.
The target of test [20] is rHuman ErbB2/Fc Chimera, CF (Cat# 1129-ER, R&D Systems) (human) (UniProt P04626). In words: Multispot ECL; Fab 7.5 nM; blank 217.
The target in test [21] is rHuman HGF R/c-MET/Fc Chimera, CF (Cat# 358-MT/CF, R&D Systems) (human) (UniProt P08581). In words: Multispot ECL; Fab 60 nM; blank 237.
The target of test [22] is rHuman IGF-1 sR, (IGF-1 sR), CF (Cat# 391-GR, R&D Systems) (human) (UniProt P08069). Put plainly: Multispot ECL; Fab 60 nM; blank 237.
Test [23] addresses rHuman EGF R/Fc Chimera, CF (Cat# 344-ER, R&D Systems) (human) (UniProt P00533). In words: Multispot ECL; Fab 60 nM; blank 237.
For test [24], the target named is rHuman ErbB2/Fc Chimera, CF (Cat# 1129-ER, R&D Systems) (human) (UniProt P04626). Put plainly: Multispot ECL; Fab 60 nM; blank 237.
Test [25] addresses rHuman HGF R/c-MET/Fc Chimera, CF (Cat# 358-MT/CF, R&D Systems) (human) (UniProt P08581). Put plainly: Multispot ECL; Fab 120 nM; blank 363.
In test [26] the target is rHuman IGF-1 sR, (IGF-1 sR), CF (Cat# 391-GR, R&D Systems) (human) (UniProt P08069). In words: Multispot ECL; Fab 120 nM; blank 363.
Test [27] concerns the target rHuman EGF R/Fc Chimera, CF (Cat# 344-ER, R&D Systems) (human) (UniProt P00533). Put plainly: Multispot ECL; Fab 120 nM; blank 363.
Test [28] has as its target rHuman ErbB2/Fc Chimera, CF (Cat# 1129-ER, R&D Systems) (human) (UniProt P04626). Put plainly: Multispot ECL; Fab 120 nM; blank 363.
Test [29] concerns the target rHuman HGF R/c-MET/Fc Chimera, CF (Cat# 358-MT/CF, R&D Systems) (human) (UniProt P08581). In words: Multispot ECL; Fab 240 nM; blank 316.
Test [30] addresses rHuman IGF-1 sR, (IGF-1 sR), CF (Cat# 391-GR, R&D Systems) (human) (UniProt P08069). In words: Multispot ECL; Fab 240 nM; blank 316.
Test [31] deals with rHuman EGF R/Fc Chimera, CF (Cat# 344-ER, R&D Systems) (human) (UniProt P00533). Put plainly: Multispot ECL; Fab 240 nM; blank 316.
The target of test [32] is rHuman ErbB2/Fc Chimera, CF (Cat# 1129-ER, R&D Systems) (human) (UniProt P04626). Put plainly: Multispot ECL; Fab 240 nM; blank 316.
The target of test [33] is rHuman HGF R/c-MET/Fc Chimera, CF (Cat# 358-MT/CF, R&D Systems) (human) (UniProt P08581). Put plainly: Multispot ECL; Fab 6 nM; blank 191.
In test [34] the target is rHuman IGF-1 sR, (IGF-1 sR), CF (Cat# 391-GR, R&D Systems) (human) (UniProt P08069). In words: Multispot ECL; Fab 6 nM; blank 191.
The target in test [35] is rHuman EGF R/Fc Chimera, CF (Cat# 344-ER, R&D Systems) (human) (UniProt P00533). Put plainly: Multispot ECL; Fab 6 nM; blank 191.
Test [36] has as its target rHuman ErbB2/Fc Chimera, CF (Cat# 1129-ER, R&D Systems) (human) (UniProt P04626). In words: Multispot ECL; Fab 6 nM; blank 191.
Test [37] has as its target rHuman HGF R/c-MET/Fc Chimera, CF (Cat# 358-MT/CF, R&D Systems) (human) (UniProt P08581). Put plainly: Multispot ECL; Fab 51 nM; blank 335.
Test [38] deals with rHuman IGF-1 sR, (IGF-1 sR), CF (Cat# 391-GR, R&D Systems) (human) (UniProt P08069). In words: Multispot ECL; Fab 51 nM; blank 335.
In test [39] the target is rHuman EGF R/Fc Chimera, CF (Cat# 344-ER, R&D Systems) (human) (UniProt P00533). In words: Multispot ECL; Fab 51 nM; blank 335.
Test [40] has as its target rHuman ErbB2/Fc Chimera, CF (Cat# 1129-ER, R&D Systems) (human) (UniProt P04626). Put plainly: Multispot ECL; Fab 51 nM; blank 335.
Test [41] deals with rHuman HGF R/c-MET/Fc Chimera, CF (Cat# 358-MT/CF, R&D Systems) (human) (UniProt P08581). In words: Multispot ECL; Fab 17 nM; blank 143.
Test [42] has as its target rHuman IGF-1 sR, (IGF-1 sR), CF (Cat# 391-GR, R&D Systems) (human) (UniProt P08069). In words: Multispot ECL; Fab 17 nM; blank 143.
The target in test [43] is rHuman EGF R/Fc Chimera, CF (Cat# 344-ER, R&D Systems) (human) (UniProt P00533). Put plainly: Multispot ECL; Fab 17 nM; blank 143.
In test [44] the target is rHuman ErbB2/Fc Chimera, CF (Cat# 1129-ER, R&D Systems) (human) (UniProt P04626). Put plainly: Multispot ECL; Fab 17 nM; blank 143.
For test [45], the target named is rHuman HGF R/c-MET/Fc Chimera, CF (Cat# 358-MT/CF, R&D Systems) (human) (UniProt P08581). In words: Multispot ECL; Fab 154 nM; blank 447.
For test [46], the target named is rHuman IGF-1 sR, (IGF-1 sR), CF (Cat# 391-GR, R&D Systems) (human) (UniProt P08069). In words: Multispot ECL; Fab 154 nM; blank 447.
The target of test [47] is rHuman EGF R/Fc Chimera, CF (Cat# 344-ER, R&D Systems) (human) (UniProt P00533). Put plainly: Multispot ECL; Fab 154 nM; blank 447.
The target in test [48] is rHuman ErbB2/Fc Chimera, CF (Cat# 1129-ER, R&D Systems) (human) (UniProt P04626). In words: Multispot ECL; Fab 154 nM; blank 447.

B1: Fab VH6-1_IGHD3-3*01_IGHJ4*01 & V4-3_IGLJ4*01 (Fab, V domains shown)
VH: QVQLQQSGPGLVKPSQTLSLTCAISGDSVSSNSAAWNWIRQSPSRGLEWLGRTYYRSKWYNDYAVSVKSRITINPDTSKNQFSLQLNSVTPEDTAVYYCAREYYDFWSGYYTDYFDYWGQGTLVTVSS
VL: QPVLTQPTSLSASPGASARLTCTLRSGINLGSYRIFWYQQKPESPPRYLLSYYSDSSKHQGSGVPSRFSGSKDASSNAGILVISGLQSEDEADYYCMIWHSSASFVFGGGTQLIIL
With B1, the ECL signal was 951 in test [1]; 741 in [2]; 877 in test [3]; 965 in test [4]; 640 in test [5]; 697 in test [6]. Moreover, the ECL signal in test [7] came out at 585; in [8] it was 726; in test [9], 694; in [10], 705; in test [11] it was 584; in test [12], 713. The ECL signal in [13] is 519; in [14], 463; in [15], 511; in [16], 714; in test [17], 558; in test [18] it was 642. For the same molecule, the ECL signal in test [19] came out at 582; in test [20] it was 695; in test [21] it was 623; in test [22] it was 654; in [23], 679; in [24] it was 777. In addition, the ECL signal in test [25] turned out to be 785; in test [26], 813; in test [27], 658; in [28], 822; in [29], 834; in test [30], 625. Besides, the figures for the ECL signal in [31] and in [32] were 690 and 833, respectively.

B2: Fab VH5-51_IGHD5-18*01>3_IGHJ4*01 & V3-4_IGLJ1*01 (Fab, V domains shown)
VH: EVQLVQSGAEVKKPGESLKISCKGSGYSFTSYWIGWVRQMPGKGLEWMGIIYPGDSDTRYSPSFQGQVTISADKSISTAYLQWSSLKASDTAMYYCARRGYSYGYDYFDYWGQGTLVTVSS
VL: QTVVTQEPSFSVSPGGTVTLTCGLSSGSVSTSYYPSWYQQTPGQAPRTLIYSTNTRSSGVPDRFSGSILGNKAALTITGAQADDESDYYCVLYMGSGISYVFGTGTKVTVL
Regarding B2, the ECL signal in test [33] worked out at 831; in test [34], 854; in test [35] it was 742; in [36] it was 873; in [37], 1040; in [38], 1050. Further, the ECL signal in test [39] worked out at 816; in test [40], 1250; in test [41] it was 914; in test [42], 872; in [43], 805; in [44], 1030. The ECL signal in [45] was found to be 1520; in test [46], 1400; in test [47], 1400; in test [48], 1590.
